Assay [1] deals with preformed filaments of rabbit skeletal muscle actin (rabbit) (UniProt P68135). Nature of the assay: co-sedimentation; purified GST fusion proteins incubated with preformed filaments of rabbit skeletal muscle actin (0.4 mg/ml) for 60 min at 37°C in 10 mM HEPES, 0.1 M KCl, 1 mM dithiothreitol, 0.5 mM ATP, 1 mM MgCl2, 1 mM NaN3, pH 7.4; 150,000 g for 60 min at 4°C; pellet and supernatant on Coomassie-stained SDS gels.

Another assay has as its target monomeric actin (rabbit) (UniProt P68135).
The target of assay [2] is His-tagged ankyrin repeat domain (M1-R339 of human espin 1) (human) (UniProt B1AK53). Nature of the assay: pull-down; competition: the same pull-down of His–(1-339) on glutathione beads loaded with GST–(340-854), without or with synthetic peptide at 30 µM.
For assay [3], the target named is F-actin (UniProt P68133). The following applies: cited from earlier work.
The target of assay [4] is F-actin (UniProt P68133). Particulars: cited from earlier work. This is another data set of the same source.
In assay [5] the target is F-actin (UniProt P68133). Particulars: cited from earlier work. The source holds these as a separate data set.
In assay [6] the target is T1, GST–(340-854) human espin 1 fragment missing the V462-K487 xAB-containing peptide (human, UniProt B1AK53 340-854, missing the V462-K487 xAB-containing peptide (ΔxAB)).
T1 construct: human espin 1, residues D340-Y854 with V462-K487 deleted; also called ΔxAB; source: E. coli BL21 Star (DE3), purified (glutathione-Sepharose 4B), loaded on glutathione beads
T1 sequence (looked up): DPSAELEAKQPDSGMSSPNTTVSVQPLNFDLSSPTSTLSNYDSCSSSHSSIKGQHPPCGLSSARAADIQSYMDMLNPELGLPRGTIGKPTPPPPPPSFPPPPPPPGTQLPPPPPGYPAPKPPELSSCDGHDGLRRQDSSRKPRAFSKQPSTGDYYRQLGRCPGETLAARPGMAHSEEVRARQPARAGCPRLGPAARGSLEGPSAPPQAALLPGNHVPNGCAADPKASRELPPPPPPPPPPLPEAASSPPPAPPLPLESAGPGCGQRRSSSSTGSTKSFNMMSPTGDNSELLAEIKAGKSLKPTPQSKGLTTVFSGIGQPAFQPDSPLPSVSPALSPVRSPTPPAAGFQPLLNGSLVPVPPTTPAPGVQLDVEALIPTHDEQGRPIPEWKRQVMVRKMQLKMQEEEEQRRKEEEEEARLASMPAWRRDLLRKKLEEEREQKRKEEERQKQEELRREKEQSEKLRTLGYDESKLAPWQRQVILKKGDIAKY
Nature of the assay: pull-down; His-tagged ankyrin repeat domain incubated with glutathione-Sepharose beads preloaded with GST or GST–human espin 340–854 fragment in 5 mM HEPES, 10 mM imidazole, 0.1 M KCl, 1 mM dithiothreitol, 3 mM NaN3, pH 7.4, 60 min at 22°C; five washes at 4°C; Coomassie-stained SDS gels. The following applies: both partners purified.

Read-outs that look alike come from different tables or passages of the source.

In assay [1], “GST fusion with peptide V130-K155 of rat espin 2B (domain or fragment)” registered a percent of the fusion protein recovered in the high-speed pellet with F-actin of 42%. Further, in the assay with monomeric actin (rabbit), the inhibition of the rate of pyrene-actin polymerization relative to the GST control, concentration series up to 5 µM is 11%.

Regarding “MYO3A tail homology domain I peptide (M3)”, in assay [2], the percent of the His–ankyrin repeat domain still bound to GST–340-854 with 30 µM M3 is 8%. In the case of espin 1 339-720 (from UniProt Q63618), the Kd in the assay with F-actin [3] was 1000 nM. In the case of “espin 1 ΔN338 ΔN338 (from UniProt Q63618)”, the Kd in the assay with F-actin [4] is 70 nM.

With “espin smallest isoform (from UniProt Q63618)”, in the assay with F-actin [5], the Kd was 220 nM.

B1: His-tagged ankyrin repeat domain (M1-R339 of human espin 1) (domain or fragment, UniProt B1AK53 1-339, looked up)
chain: MALEQALQAARQGELDVLRSLHAAGLLGPSLRDPLDALPVHHAARAGKLHCLRFLVEEAALPAAARARNGATPAHDASATGHLACLQWLLSQGGCRVQDKDNSGATVLHLAARFGHPEVVNWLLHHGGGDPTAATDMGALPIHYAAAKGDFPSLRLLVEHYPEGVNAQTKNGATPLYLACQEGHLEVTQYLVQECGADPHARAHDGMTPLHAAAQMGHSPVIVWLVSCTDVSLSEQDKDGATAMHFAASRGHTKVLSWLLLHGGEISADLWGGTPLHDAAENGELECCQILVVNGAELDVRDRDGYTAADLSDFNGHSHCTRYLRTVENLSVEHRVLSR
notes: human espin 1, ankyrin repeat domain, residues M1-R339; Expressed from ProEX HTa or HTb; also called His–(1-339); His–ankyrin repeat domain; source: E. coli BL21 Star (DE3), purified (Ni-NTA agarose); not shown: His tag, N-terminal, kept
Take B1: the binding result in assay [6] is “binds”.
